{
  "source": "patent US11447566B2",
  "about": "“Anti-tissue factor antibodies, antibody-drug conjugates, and related methods” (Iconic Therapeutics, Inc., priority 2018, dated 2022)",
  "key": {"[1]": {"biological_target": "T1, human TF on MDA-MB-231 cells (43D7-Alexa488 binding) (Homo sapiens, UniProt P13726)", "T1 construct": "TF-positive MDA-MB-231 cells (ATCC, Manassas, Va., USA); host or cells: MDA-MB-231", "assay": "Antibody competition assay with 43D7", "details": "pre-incubation with unlabeled competitor antibody", "description": "(§1) Alexa Fluor antibodies were generated using Alexa Fluor 488 5-sulfo-[…] esters (ThermoFisher Scientific) following manufacturer's protocol. Excess Alexa Fluor dye was removed from the antibody dye conjugate preparations by gel filtration (ThermoFisher Scientific).\n(§2) After another 1 hr incubation on ice, cells were washed, stained with a viability dye, and analyzed by flow cytometry. The Alexa488 fluorescence data from viable cells was summarized using median fluorescence intensity."}, "[2]": {"biological_target": "T2, human TF on MDA-MB-231 cells (39A-Alexa488 binding) (Homo sapiens, UniProt P13726)", "T2 construct": "TF-positive MDA-MB-231 cells (ATCC, Manassas, Va., USA); host or cells: MDA-MB-231", "assay": "Antibody competition assay with 39A", "details": "pre-incubation with unlabeled competitor antibody", "description": "as §1, §2"}, "[3]": {"biological_target": "T3, human, rat and chimeric human-rat TF constructs expressed on HEK293 cells (Homo sapiens, UniProt P13726, A112W/A121G/E116T/E127T/E131K/E137D/G113R/G119T/G122E/L125P/L136R/N139K/P130R/S117H/S120H/S129A/T118G/T133L/V115S/Y110V/Y126F)", "T3 construct": "expressed in transfected cells; host or cells: HEK293", "assay": "Live cell staining assay on chimeric TF constructs (epitope binning)", "assay_type": "cell-based", "details": "construct h78-107_r (21), human segment replaced by rat segment", "description": "(§3) To establish binding of the anti-human TF antibodies to the various TF constructs, HEK293 cells were transfected with a DNA plasmid that co-expresses the TF construct and a green fluorescent protein marker. […] Two days after transfection, cells were collected from the tissue culture plate, stained with 15 μg/ml of the indicated anti-TF antibody, washed, stained with anti-human IgG-Fc Alexa Fluor 647 polyclonal antibody, washed, and stained with the viability dye 4′,6-Diamidino-2-Phenylindole, Dihydrochloride. Upon acquisition of 80,000 live events on a flow cytometer, live cells marked with the fluorescent marker were analyzed for the degree of staining by the anti-TF antibody. […] As used herein, the term “live cell staining assay” refers to the antibody binding assay used in this example.\n(§4) When “Percentage antibody binding to TF construct relative to hTF” in Tables 51 and 52 was less than 50%, the antibody was considered a non-binder (0) in Tables 53 and 54.\n(§5) Each antibody was assigned to an epitope bin in Table 55 based on the combination of unbound constructs from Table 53."}, "[4]": {"biological_target": "T4, human, rat and chimeric human-rat TF constructs expressed on HEK293 cells (Homo sapiens, UniProt P13726, A200N/K201T/N203H)", "T4 construct": "expressed in transfected cells; host or cells: HEK293", "assay": "Live cell staining assay on chimeric TF constructs (epitope binning)", "assay_type": "cell-based", "details": "construct h167-174_r (3), human segment replaced by rat segment", "description": "as §3, §4, §5"}, "[5]": {"biological_target": "T5, human, rat and chimeric human-rat TF constructs expressed on HEK293 cells (Homo sapiens, UniProt P13726, D177Q/S174T)", "T5 construct": "expressed in transfected cells; host or cells: HEK293", "assay": "Live cell staining assay on chimeric TF constructs (epitope binning)", "assay_type": "cell-based", "details": "construct h140-145_r (2), human segment replaced by rat segment", "description": "as §3, §4, §5"}, "[6]": {"biological_target": "T6, human, rat and chimeric human-rat TF constructs expressed on HEK293 cells (Homo sapiens, UniProt P13726, D212E/E215V/N216S/S220F/V221A)", "T6 construct": "expressed in transfected cells; host or cells: HEK293", "assay": "Live cell staining assay on chimeric TF constructs (epitope binning)", "assay_type": "cell-based", "details": "construct h175-189_r (5), human segment replaced by rat segment", "description": "as §3, §4, §5"}, "[7]": {"biological_target": "T7, human, rat and chimeric human-rat TF constructs expressed on HEK293 cells (Homo sapiens, UniProt P13726, D76N/F108L/F82T/G75R/K100N/K73R/L104E/Q101W/S79Y/T72D/Y83G)", "T7 construct": "expressed in transfected cells; host or cells: HEK293", "assay": "Live cell staining assay on chimeric TF constructs (epitope binning)", "assay_type": "cell-based", "details": "construct h39-77_r (11), human segment replaced by rat segment", "description": "as §3, §4, §5"}, "[8]": {"biological_target": "T8, human, rat and chimeric human-rat TF constructs expressed on HEK293 cells (Homo sapiens, UniProt P13726, E127T/E131K/E137D/L136R/N139K/P130R/S129A/T133L/Y126F)", "T8 construct": "expressed in transfected cells; host or cells: HEK293", "assay": "Live cell staining assay on chimeric TF constructs (epitope binning)", "assay_type": "cell-based", "details": "construct h94-107_r (9), human segment replaced by rat segment", "description": "as §3, §4, §5"}, "[9]": {"biological_target": "T9, human, rat and chimeric human-rat TF constructs expressed on HEK293 cells (Homo sapiens, UniProt P13726, K100N)", "T9 construct": "expressed in transfected cells; host or cells: HEK293", "assay": "Live cell staining assay on chimeric TF constructs (epitope binning)", "assay_type": "cell-based", "details": "construct hTF_K68N", "description": "as §3, §4, §5"}, "[10]": {"biological_target": "T10, human, rat and chimeric human-rat TF constructs expressed on HEK293 cells (Homo sapiens, UniProt P13726, K181N)", "T10 construct": "expressed in transfected cells; host or cells: HEK293", "assay": "Live cell staining assay on chimeric TF constructs (epitope binning)", "assay_type": "cell-based", "description": "as §3, §4, §5"}, "[11]": {"biological_target": "T11, human, rat and chimeric human-rat TF constructs expressed on HEK293 cells (Homo sapiens, UniProt P13726, K197R/S192D/S195T)", "T11 construct": "expressed in transfected cells; host or cells: HEK293", "assay": "Live cell staining assay on chimeric TF constructs (epitope binning)", "assay_type": "cell-based", "details": "construct h159-166_r (3), human segment replaced by rat segment", "description": "as §3, §4, §5"}, "[12]": {"biological_target": "T12, human, rat and chimeric human-rat TF constructs expressed on HEK293 cells (Homo sapiens, UniProt P13726, N170G/R168K)", "T12 construct": "expressed in transfected cells; host or cells: HEK293", "assay": "Live cell staining assay on chimeric TF constructs (epitope binning)", "assay_type": "cell-based", "details": "construct h133-139_r (2), human segment replaced by rat segment", "description": "as §3, §4, §5"}, "[13]": {"biological_target": "T13, human, rat and chimeric human-rat TF constructs expressed on HEK293 cells (Homo sapiens, UniProt P13726, S192D)", "T13 construct": "expressed in transfected cells; host or cells: HEK293", "assay": "Live cell staining assay on chimeric TF constructs (epitope binning)", "assay_type": "cell-based", "details": "construct h159-219_r (27), human segment replaced by rat segment", "description": "as §3, §4, §5"}, "[14]": {"biological_target": "T14, human, rat and chimeric human-rat TF constructs expressed on HEK293 cells (Rattus norvegicus, UniProt P42533)", "T14 construct": "expressed in transfected cells; host or cells: HEK293", "T14 sequence (P42533 29-295, change not shown)": "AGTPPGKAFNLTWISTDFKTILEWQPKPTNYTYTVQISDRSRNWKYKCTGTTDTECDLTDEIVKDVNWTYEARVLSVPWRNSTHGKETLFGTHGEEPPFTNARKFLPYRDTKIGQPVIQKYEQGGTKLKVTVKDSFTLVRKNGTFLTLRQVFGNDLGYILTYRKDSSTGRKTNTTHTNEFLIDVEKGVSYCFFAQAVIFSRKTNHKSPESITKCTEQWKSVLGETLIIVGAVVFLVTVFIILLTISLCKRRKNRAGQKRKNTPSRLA", "assay": "Live cell staining assay on chimeric TF constructs (epitope binning)", "assay_type": "cell-based", "details": "construct rTF", "description": "as §3, §4, §5"}, "[15]": {"tested_on": "human, rat and chimeric human-rat TF constructs expressed on HEK293 cells", "assay": "Live cell staining assay on chimeric TF constructs (epitope binning)", "assay_type": "cell-based", "details": "for Antibody binding to TF construct: human segment replaced by rat segment", "description": "as §3, §4, §5"}},
  "data": [
    {"substance": "TF-011 [reference compound]", "values": [
      {"measurement": "% 43D7 binding", "setting": "[1]", "result": "did not reduce"},
      {"measurement": "% 39A binding", "setting": "[2]", "result": "reduced"},
      {"measurement": "Antibody binding to TF construct", "setting": "[3]", "result": "0 (less than 50%, the antibody was considered a non-binder (0))"},
      {"measurement": "Antibody binding to TF construct", "setting": "[4]", "result": "1 (between 50% and 150%, the antibody was considered a binder (1))"},
      {"measurement": "Antibody binding to TF construct", "setting": "[5]", "result": "1 (between 50% and 150%, the antibody was considered a binder (1))"},
      {"measurement": "Antibody binding to TF construct", "setting": "[6]", "result": "1 (between 50% and 150%, the antibody was considered a binder (1))"},
      {"measurement": "Antibody binding to TF construct", "setting": "[7]", "result": "0 (less than 50%, the antibody was considered a non-binder (0))"},
      {"measurement": "Antibody binding to TF construct", "setting": "[8]", "result": "0 (less than 50%, the antibody was considered a non-binder (0))"},
      {"measurement": "Antibody binding to TF construct", "setting": "[9]", "result": "1 (between 50% and 150%, the antibody was considered a binder (1))"},
      {"measurement": "Antibody binding to TF construct", "setting": "[10]; construct h146-151_r (1), human segment replaced by rat segment", "result": "1 (between 50% and 150%, the antibody was considered a binder (1))"},
      {"measurement": "Antibody binding to TF construct", "setting": "[10]; construct hTF_K149N", "result": "1 (between 50% and 150%, the antibody was considered a binder (1))"},
      {"measurement": "Antibody binding to TF construct", "setting": "[11]", "result": "1 (between 50% and 150%, the antibody was considered a binder (1))"},
      {"measurement": "Antibody binding to TF construct", "setting": "[12]", "result": "1 (between 50% and 150%, the antibody was considered a binder (1))"},
      {"measurement": "Antibody binding to TF construct", "setting": "[13]", "result": "1 (between 50% and 150%, the antibody was considered a binder (1))"},
      {"measurement": "Antibody binding to TF construct", "setting": "[14]; Table 54", "result": "0 (less than 50%, the antibody was considered a non-binder (0))"},
      {"measurement": "Antibody binding to TF construct", "setting": "[14]", "result": "0 (less than 50%, the antibody was considered a non-binder (0))"},
      {"measurement": "Epitope Bin", "setting": "[15]; assignment based on unbound chimeric constructs", "result": 1},
      {"measurement": "Constructs not bound by antibody", "setting": "[15]; chimeric human-rat TF constructs of Table 53", "result": "rTF, h1-107_r, h1-77_r, h39-77_r, h78-107_r, h78-107_r.v2, h94-107_r"},
      {"measurement": "Antibody binding to TF construct", "setting": "[15]; construct h1-38_r (14)", "result": "1 (between 50% and 150%, the antibody was considered a binder (1))"},
      {"measurement": "Antibody binding to TF construct", "setting": "[15]; construct h1-77_r (25)", "result": "0 (less than 50%, the antibody was considered a non-binder (0))"},
      {"measurement": "Antibody binding to TF construct", "setting": "[15]; construct h1-107_r (52)", "result": "0 (less than 50%, the antibody was considered a non-binder (0))"},
      {"measurement": "Antibody binding to TF construct", "setting": "[15]; construct h78-93_r (18)", "result": "1 (between 50% and 150%, the antibody was considered a binder (1))"},
      {"measurement": "Antibody binding to TF construct", "setting": "[15]; construct h78-107_r.v2 (27)", "result": "0 (less than 50%, the antibody was considered a non-binder (0))"}
    ]}
  ]
}
